Reference: paper PMC10397247

What was measured:
P10-AA = biological target: T1, P10-AA; assay: two-hybrid library CCmax; conditions: mean of both orientations;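 note: natural log of median RNA to DNA barcode read ratio; higher means stronger binding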
T1 chain: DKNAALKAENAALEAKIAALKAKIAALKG

4H536-AA = biological target: T2, 4H536-AA; assay: two-hybrid library CCmax; conditions: mean of both orientations;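 note: natural log of median RNA to DNA barcode read ratio; higher means stronger binding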
T2 chain: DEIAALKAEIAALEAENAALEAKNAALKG

O7-AA = biological target: T3, O7-AA; assay: two-hybrid library CCmax; conditions: mean of both orientations;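 note: natural log of median RNA to DNA barcode read ratio; higher means stronger binding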
T3 chain: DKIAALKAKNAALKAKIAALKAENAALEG

4H485-AA = biological target: T4, 4H485-AA; assay: two-hybrid library CCmax; conditions: mean of both orientations;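 note: natural log of median RNA to DNA barcode read ratio; higher means stronger binding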
T4 chain: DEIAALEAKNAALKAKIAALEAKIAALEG

4H891-AA = biological target: T5, 4H891-AA; assay: two-hybrid library CCmax; conditions: mean of both orientations;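 note: natural log of median RNA to DNA barcode read ratio; higher means stronger binding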
T5 chain: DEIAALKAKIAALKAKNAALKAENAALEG

O6-AA = biological target: T6, O6-AA; assay: two-hybrid library CCmax; conditions: mean of both orientations;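 note: natural log of median RNA to DNA barcode read ratio; higher means stronger binding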
T6 chain: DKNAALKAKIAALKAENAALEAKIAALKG

P9-AA = biological target: T7, P9-AA; assay: two-hybrid library CCmax; conditions: mean of both orientations
T7 chain: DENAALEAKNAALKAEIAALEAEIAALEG

4H458-AA = biological target: T8, 4H458-AA; assay: two-hybrid library CCmax; conditions: mean of both orientations
T8 chain: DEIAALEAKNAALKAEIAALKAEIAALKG

O3-AA = biological target: T9, O3-AA; assay: two-hybrid library CCmax; conditions: mean of both orientations
T9 chain: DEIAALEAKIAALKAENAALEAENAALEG

4H570-AA = biological target: T10, 4H570-AA; assay: two-hybrid library CCmax; conditions: mean of both orientations
T10 chain: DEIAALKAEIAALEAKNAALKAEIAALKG

4H3165-AA = biological target: T11, 4H3165-AA; assay: two-hybrid library CCmax; conditions: mean of both orientations
T11 chain: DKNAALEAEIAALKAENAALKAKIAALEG

4H909-AA = biological target: T12, 4H909-AA; assay: two-hybrid library CCmax; conditions: mean of both orientations
T12 chain: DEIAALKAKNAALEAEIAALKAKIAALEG

4H3410-AA = biological target: T13, 4H3410-AA; assay: two-hybrid library CCmax; conditions: mean of both orientations
T13 chain: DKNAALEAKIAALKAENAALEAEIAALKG

4H3697-AA = biological target: T14, 4H3697-AA; assay: two-hybrid library CCmax; conditions: mean of both orientations
T14 chain: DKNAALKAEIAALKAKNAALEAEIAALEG

O5-AA = biological target: T15, O5-AA; assay: two-hybrid library CCmax; conditions: mean of both orientations
T15 chain: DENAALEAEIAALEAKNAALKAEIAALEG

4H3381-AA = biological target: T16, 4H3381-AA; assay: two-hybrid library CCmax; conditions: mean of both orientations
T16 chain: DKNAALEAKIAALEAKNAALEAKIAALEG

O14-AA = biological target: T17, O14-AA; assay: two-hybrid library CCmax; conditions: mean of both orientations
T17 chain: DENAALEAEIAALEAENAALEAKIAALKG

4H797-AA = biological target: T18, 4H797-AA; assay: two-hybrid library CCmax; conditions: mean of both orientations
T18 chain: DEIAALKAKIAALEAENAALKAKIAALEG

O8-AA = biological target: T19, O8-AA; assay: two-hybrid library CCmax; conditions: mean of both orientations
T19 chain: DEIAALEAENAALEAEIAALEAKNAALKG

O2-AA = biological target: T20, O2-AA; assay: two-hybrid library CCmax; conditions: mean of both orientations
T20 chain: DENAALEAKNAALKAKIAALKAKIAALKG

4H710-AA = biological target: T21, 4H710-AA; assay: two-hybrid library CCmax; conditions: mean of both orientations
T21 chain: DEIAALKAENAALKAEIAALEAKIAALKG

O1-AA = biological target: T22, O1-AA; assay: two-hybrid library CCmax; conditions: mean of both orientations
T22 chain: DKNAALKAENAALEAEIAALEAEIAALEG

4H3016-AA = biological target: T23, 4H3016-AA; assay: two-hybrid library CCmax
T23 chain: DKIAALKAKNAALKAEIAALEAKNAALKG

4H3753-AA = biological target: T24, 4H3753-AA; assay: two-hybrid library CCmax; conditions: mean of both orientations
T24 chain: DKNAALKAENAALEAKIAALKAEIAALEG

4H3865-AA = biological target: T25, 4H3865-AA; assay: two-hybrid library CCmax; conditions: mean of both orientations
T25 chain: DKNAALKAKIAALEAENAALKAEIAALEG

4H850-AA = biological target: T26, 4H850-AA; assay: two-hybrid library CCmax; conditions: mean of both orientations
T26 chain: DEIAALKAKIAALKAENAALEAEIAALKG

4H629-AA = biological target: T27, 4H629-AA; assay: two-hybrid library CCmax; conditions: mean of both orientations
T27 chain: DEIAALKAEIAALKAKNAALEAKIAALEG

4H94-AA = biological target: T28, 4H94-AA; assay: two-hybrid library CCmax; conditions: mean of both orientations
T28 chain: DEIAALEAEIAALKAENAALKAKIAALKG

O11-AA = biological target: T29, O11-AA; assay: two-hybrid library CCmax; conditions: mean of both orientations
T29 chain: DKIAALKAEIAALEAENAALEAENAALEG

4H3130-AA = biological target: T30, 4H3130-AA; assay: two-hybrid library CCmax; conditions: mean of both orientations
T30 chain: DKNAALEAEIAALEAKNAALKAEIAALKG

O4-AA = biological target: T31, O4-AA; assay: two-hybrid library CCmax; conditions: mean of both orientations
T31 chain: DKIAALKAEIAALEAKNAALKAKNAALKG

4H745-AA = biological target: T32, 4H745-AA; assay: two-hybrid library CCmax; conditions: mean of both orientations
T32 chain: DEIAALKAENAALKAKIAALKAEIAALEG

O13-AA = biological target: T33, O13-AA; assay: two-hybrid library CCmax; conditions: mean of both orientations
T33 chain: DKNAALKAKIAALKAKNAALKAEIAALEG

4H384-AA = biological target: T34, 4H384-AA; assay: two-hybrid library CCmax; conditions: mean of both orientations
T34 chain: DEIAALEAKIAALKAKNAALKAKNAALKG

4H310-AA = biological target: T35, 4H310-AA; assay: two-hybrid library CCmax; conditions: mean of both orientations
T35 chain: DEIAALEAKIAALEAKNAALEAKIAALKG

4H930-AA = biological target: T36, 4H930-AA; assay: two-hybrid library CCmax; conditions: mean of both orientations
T36 chain: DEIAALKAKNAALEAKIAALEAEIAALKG

4H3120-AA = biological target: T37, 4H3120-AA; assay: two-hybrid library CCmax; conditions: mean of both orientations
T37 chain: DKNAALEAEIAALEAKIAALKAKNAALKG

4H3590-AA = biological target: T38, 4H3590-AA; assay: two-hybrid library CCmax; conditions: mean of both orientations
T38 chain: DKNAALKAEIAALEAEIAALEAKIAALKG

4H3395-AA = biological target: T39, 4H3395-AA; assay: two-hybrid library CCmax; conditions: mean of both orientations
T39 chain: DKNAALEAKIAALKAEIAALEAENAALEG

O15-bP = biological target: T40, O15-bP; assay: two-hybrid library CCNG1
T40 chain: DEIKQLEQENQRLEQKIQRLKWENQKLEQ

O14-bP = biological target: T41, O14-bP; assay: two-hybrid library CCNG1
T41 chain: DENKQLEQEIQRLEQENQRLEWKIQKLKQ

O4-bP = biological target: T42, O4-bP; assay: two-hybrid library CCNG1
T42 chain: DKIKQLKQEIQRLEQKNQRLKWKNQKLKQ

O8-bP = biological target: T43, O8-bP; assay: two-hybrid library CCNG1
T43 chain: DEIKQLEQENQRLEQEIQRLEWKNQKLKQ

O2-bP = biological target: T44, O2-bP; assay: two-hybrid library CCNG1
T44 chain: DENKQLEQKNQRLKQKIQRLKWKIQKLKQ

O5-bP = biological target: T45, O5-bP; assay: two-hybrid library CCNG1
T45 chain: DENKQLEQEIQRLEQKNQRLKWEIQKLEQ

O7-bP = biological target: T46, O7-bP; assay: two-hybrid library CCNG1
T46 chain: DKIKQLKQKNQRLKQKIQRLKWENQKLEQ

O13-bP = biological target: T47, O13-bP; assay: two-hybrid library CCNG1
T47 chain: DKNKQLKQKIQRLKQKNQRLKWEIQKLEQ

O3-bP = biological target: T48, O3-bP; assay: two-hybrid library CCNG1
T48 chain: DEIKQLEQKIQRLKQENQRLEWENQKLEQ

O9-bP = biological target: T49, O9-bP; assay: two-hybrid library CCNG1
T49 chain: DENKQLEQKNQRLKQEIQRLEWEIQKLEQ

O6-bP = biological target: T50, O6-bP; assay: two-hybrid library CCNG1
T50 chain: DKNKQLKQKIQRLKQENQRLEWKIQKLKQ

O12-bP = biological target: T51, O12-bP; assay: two-hybrid library CCNG1
T51 chain: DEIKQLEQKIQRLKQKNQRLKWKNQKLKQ

O16-bP = biological target: T52, O16-bP; assay: two-hybrid library CCNG1
T52 chain: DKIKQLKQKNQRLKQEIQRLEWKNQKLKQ

With DKIAALKAKNAALKAEIAALEAKNAALKG [4H3016-AA] the interaction score (P10-AA) was -0.503, the interaction score (4H536-AA) was -0.944 and the interaction score (O7-AA) was 0.0246. The interaction score (4H485-AA) was -0.786, the interaction score (4H891-AA) was -1.63 and the interaction score (O6-AA) was 0.964. It also gave an interaction score (P9-AA) of -0.637, an interaction score (4H458-AA) of -1.13 and an interaction score (O3-AA) of -0.74. For the same binder, the interaction score (4H570-AA) was -1.4, the interaction score (4H3165-AA) was -1.17 and the interaction score (4H909-AA) was -0.857. It also gave an interaction score (4H3410-AA) of 0.759, an interaction score (4H3697-AA) of -0.432 and an interaction score (O5-AA) of -0.896. For the same binder, the interaction score (4H3381-AA) was -1.11, the interaction score (O14-AA) was 2 and the interaction score (4H797-AA) was -1.65. For the same binder, the interaction score (O8-AA) was 1.56, the interaction score (O2-AA) was -1.29 and the interaction score (4H710-AA) was -1.35. It also gave an interaction score (O1-AA) of -0.276, an interaction score (4H3016-AA) of -1.56 and an interaction score (4H3753-AA) of 0.667. It also gave an interaction score (4H3865-AA) of -1.38, an interaction score (4H850-AA) of -0.436 and an interaction score (4H629-AA) of -1.28. It also gave an interaction score (4H94-AA) of -0.745, an interaction score (O11-AA) of -1.4 and an interaction score (4H3130-AA) of -0.405. It also gave an interaction score (O4-AA) of -1.64, an interaction score (4H745-AA) of 0.997 and an interaction score (O13-AA) of -1.87. For the same binder, the interaction score (4H384-AA) was -1.89, the interaction score (4H310-AA) was -0.901 and the interaction score (4H930-AA) was -1.32. It also gave an interaction score (4H3120-AA) of -1.33, an interaction score (4H3590-AA) of 0.669 and an interaction score (4H3395-AA) of -1.1.

With DEIKQLEQKIQRLKQKNQRLKWKNQKLKQ [O12-bP] the interaction score (O15-bP) was -0.827, the interaction score (O14-bP) was -0.196 and the interaction score (O4-bP) was 0.355. For the same binder, the interaction score (O8-bP) was -1.25, the interaction score (O2-bP) was -1.14 and the interaction score (O5-bP) was -0.621. For the same binder, the interaction score (O7-bP) was -0.715, the interaction score (O13-bP) was -0.964 and the interaction score (O3-bP) was -1.45. For the same binder, the interaction score (O9-bP) was 0.055, the interaction score (O6-bP) was -1.02 and the interaction score (O12-bP) was -0.0984. It also gave an interaction score (O16-bP) of -0.648.
